Experiments:
Jurkat cells = test: FACS binding of Y1-cys monomer and dimer to Jurkat cells; parameters: species or system human
Description: The present invention is directed to Y1 and Y17 multimers prepared by any known method in the art. A preferred method of forming multimers, and especially dimers, employs the use of cysteine residues to form disulfide bonds between two monomers. In this embodiment, dimers are formed by adding a cysteine on the carboxyl terminus of the scFvs (referred to as Y1-cys scFv or Y1 dimer) in order to facilitate dimer formation. After the DNA construct was made (See Example 2D and 6D) and used for transfection, Y1 dimers were expressed in a production vector and refolded in vitro. The protein was analyzed by SDS-PAGE, HPLC, and FACS. […] Thus, the process was repeated and this time, two-liter fermentation batches of the antibodies were run. After expressing Y1-cys in E. coli strain BL21, refolding was done in arginine. Following refolding, the protein was dialyzed and purified by Q-sepharose and gel filtration (sephadex 75). Two peaks were detected by SDS-PAGE (non-reduced) and by gel filtration. The peaks were collected separately and analyzed by FACS. Monomer and dimer binding to Jurkat cells was checked by FACS. […] Conditions for dimer refolding were determined, and material comprising >90% dimers (mg quantities) was produced after subsequent dialysis, chromatographic, and gel filtration steps. […]

KG-1 cells = test: Binding competition experiments on KG-1 cells (monomer, dimer, Y1 IgG); parameters: species or system human; settings: as analyzed by radioreceptor assay, ELISA or FACS
Description: To compare the binding of the scFv monomer (also referred to as CONY1) with the Y1 dimer, binding competition experiments were done in vitro on KG-1 cells. In addition, these experiments also compared the binding of the full Y1 IgG to the scFv Y1 monomers. To perform this study, a Y1 IgG was labeled with biotin.

[1] = tested on: platelet-rich-plasma (PRP); test: Ristocetin-induced aggregation of platelet-rich plasma (scFv); format: cell-based, human; settings: scFv 38 μg/ml, 100% = ristocetin treatment
Method: The effect of Y1 (scFv) on aggregation of platelet-rich-plasma (PRP) was tested at various concentrations of Y1. PRP was pre-incubated with Y1 scFv, Y17 scFv, or a control sTM-1cFv for 4 min at 37° C. before being exposed to ristocetin, an inducer of platelet agglutination and aggregation. A reversible inhibitory effect was observed when scFv was added to PRP prior to the addition of ristocetin, and it was dose dependent.
Blood was collected into a tube containing 3.8% sodium citrate. Platelet-rich plasma was prepared by centrifugation at 250×g for 10 minutes.
(§1) For platelet aggregation studies, platelet rich plasma (PRP) and washed platelets were stirred at 500 rpm at 37° C. in whole blood Lumiaggregometer (Chronolog, Havertown, Pa.). The difference in light transmission through the platelet suspension and suspending medium was taken as 100% aggregation. The effect of Y1 on platelet aggregation was evaluated by addition of different concentration of Y1 before the addition of agonist, and the effect was recorded for four minutes.

washed platelets = test: Ristocetin-induced agglutination of washed platelets (scFv); format: cell-based, human
Method: Aggregation is determined in PRP due to the presence of thrombotic agents, while agglutination is determined in washed platelets. The effect of Y1 (scFv) on agglutination of washed platelets was tested at various concentrations of Y1. Platelets were pre-incubated with Y1 scFv, Y17 scFv, Y16-scFv, or a control TM-1 scFv for 4 min at 37° C. before being exposed to ristocetin, an inducer of platelet agglutination and aggregation.
Platelet concentrate in acid-citrate-dextrose (ACD) was obtained from a blood bank, platelets were isolated, washed once in buffer containing ACD and saline in a ratio of 1:7. The platelets were centrifuged at 800 g for 10 min after each wash and were resuspended in Tyrodes solution (2 mM MgCl2, 137 mM NaCl, 2.68 mM KCl, 3 mM NaH2PO4, 0.1% glucose, 5 mM Hepes and 0.35% albumin, pH 7.35) and count the number of cells.
as §1
The effect of Y17-scFv on vWF-dependent agglutination of platelets was tested at different concentrations of Y17.

Molecule | amount needed relative to the monomeric antibody for the same level of staining (Jurkat cells) | binding relative to the Y1 scFv monomer (KG-1 cells) | % aggregation [1] [%] | inhibition of vWF-dependent platelet agglutination (washed platelets; final concentration of 10, 25 or 50 μg/ml, washed platelets, ristocetin) | % agglutination (washed platelets; scFv 25 μg/ml, 100% = ristocetin treatment) [%] | % inhibition (washed platelets; scFv 25 μg/ml, ristocetin-induced agglutination) [%]
Y1 dimer: disulfide dimer of Y1 scFv with a cysteine added on the carboxyl terminus (protein) scFv 1: MEVQLVESGGGVVRPGGSLRLSCAASGFTFDDYGMSWVRQAPGKGLEWVSGINWNGGSTGYADSVKGRFTISRDNAKNSLYLQMNSLRAEDTAVYYCARMRAPVIWGQGTLVTVSRGGGGSGGGGSGGGGSSELTQDPAVSVALGQTVRITCQGDSLRSYYASWYQQKPGQAPVLVIYGKNNRPSGIPDRFSGSSSGNTASLTITGAQAEDEADYYCNSRDSSGNHVVFGGGTKLTVLGGGGCKAK scFv 2: MEVQLVESGGGVVRPGGSLRLSCAASGFTFDDYGMSWVRQAPGKGLEWVSGINWNGGSTGYADSVKGRFTISRDNAKNSLYLQMNSLRAEDTAVYYCARMRAPVIWGQGTLVTVSRGGGGSGGGGSGGGGSSELTQDPAVSVALGQTVRITCQGDSLRSYYASWYQQKPGQAPVLVIYGKNNRPSGIPDRFSGSSSGNTASLTITGAQAEDEADYYCNSRDSSGNHVVFGGGTKLTVLGGGGCKAK | 1/100 | at least 20 fold |  |  |  | 
Y17 scFv: second scFv clone binding platelets and myelogenous leukemia cell lines; SEQ ID NO:203, CDR3 SEQ ID NO:20 (protein, listed as Homo sapiens) scFv: MKYLLPTAAAGLLLLAAQPAMAEVQLVESGGGVVRPGGSLRLSCAASGFTFDDYGMSWVRQAPGKGLEWVSGINWNGGSTGYADSVKGRFTISRDNAKNSLYLQMNSLRAEDTAVYYCARLTHPYFWGQGTLVTVSRGGGGSGGGGSGGGGSSELTQDPAVSVALGQTVRITCQGDSLRSYYASWYQQKPGQAPVLVIYGKNNRPSGIPDRFSGSSSGNTASLTITGAQAEDEADYYCNSRDSSGNHVVFGGGTKLTVLGAAAEQKLISEEDLNGAA |  |  | 100 | did not inhibit | 85 | 15
